The data set deals with the molecule itself. The data set is described as follows: SDS-PAGE (Coomassie blue) and Western blot of the purified protein; purified GS-168AT2; 36 kDa band seen by Coomassie blue and recognised by 229T mAb. In general terms: In western blotting, separated proteins are transferred to a membrane and probed.

B1: GS-168AT2, truncated form of CD9 partner-1 (CD9P-1), amino acid 724-832 (domain or fragment, human, UniProt Q9P2B2 724-832, looked up)
chain: DMAFDVSWFAVHSFGLDKAPVLLSSLDRKGIVTTSRRDWKSDLSLERVSVLEFLLQVHGSEDQDFGNYYCSVTPWVKSPTGSWQKEAEIHSKPVFITVKMDVLNAFKYP
notes: CD9 partner-1 (CD9P-1/FPRP/EWI-F), human, amino acid 724-832: the unglycosylated extracellular portion next to the transmembrane domain; cDNA from RNA of human endothelial cells; no removal of the tag is described. pET-30 EK/LIC is known to add His and S tags at the N-terminus (surmised); also called truncated CD9P-1; source: E. coli BL21(DE3)pLys, purified from the insoluble fraction in urea …
Consider B1, for which the binding result is listed as “binds”.

These data come from article PMC3185932, “A truncated form of CD9-partner 1 (CD9P-1), GS-168AT2, potently inhibits in vivo tumour-induced angiogenesis and tumour growth” (British Journal of Cancer, 2011).
